# Measured values published in the supplement of paper PMC7125110.
# ± gives the standard error. This sample holds only a part of the variants without activity.
# B1: glmS ribozyme (parent)
# chain: AUAAAAGCGCCAGAACUACAGAAAUGUAGUUGACGAGGAGGAGGUUUAUCGAAUUUUCGGCGGAUGCCUCCAAA
# Variants of: B1
# Test: self-cleavage kobs at 2500 uM GlcN6P; higher = faster cleavage; RNA array
# Conditions: with glucosamine-6-phosphate
# In short: (§1)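 Glucosamine-6-phosphate, from 40 μM to 10 mM in HEPES/KCl/Mg(OAc)2 buffer, was flowed over sequenced MiSeq chips carrying barcoded ribozyme variants transcribed in situ by E. coli RNA polymerase. A hybridised Cy3 probe tracked the variants at 37 °C as tiles were imaged over ~14 h. kobs, kcat and KM were obtained by fitting normalised per-tile medians to exponential decays and then applying weighted Michaelis–Menten fits across concentrations.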
row,Variant,self-cleavage kobs at 2500 uM GlcN6P [s⁻¹]
1,A33U G51C A53C,< 1e-05
2,C11A C34G A36U G40A A52G A53U,< 1e-05
3,C8A G35U A52U,< 1e-05
4,C16A G43U A53U G60A C68A,< 1e-05
5,C11G G13A G41A A52U A53C G63C C68G,< 1e-05
6,A6G A36C C58A,< 1e-05
7,A6G A15U G59C,< 1e-05
8,A14C U30G A52G,4.27e-05 ± 2.1e-05
9,A12U A33G G38U G44U G59A,< 1e-05
10,G32U C50U,< 1e-05
11,A6G A14U U54A,0.000117 ± 2.9e-05
12,G9U C10G C16U,< 1e-05
13,A15G U30G A64G,0.00272 ± 0.00073
14,A12G A15U C71G,2.52e-05 ± 1.1e-05
15,C34U G37A A39C,< 1e-05
16,A12U C16U G43C G62C C70U,< 1e-05
17,G13U U31C G44U A64U,< 1e-05
18,G29U G44A U46C U65C,< 1e-05
19,A12C U56A C58G,0.00043 ± 8.1e-05
20,G37A A53G U55G U65G,8.03e-05 ± 1.8e-05
21,C10U G29U U57C,< 1e-05
22,A36C U49G G63C,< 1e-05
23,C16U A36U A39U A52U,< 1e-05
24,A33C G41C C67G,< 1e-05
25,C11G G51A A64C,< 1e-05
26,A14U A48C U69A,< 1e-05
27,C34U G51U A64C,< 1e-05

row,Variant,self-cleavage kobs at 2500 uM GlcN6P [s⁻¹]
1,G9U A14U A42C,< 1e-05
2,A15U G43U A53U C68U,8.35e-05 ± 3.5e-05
3,C11U A14C A39U U56C,7.9e-05 ± 2.4e-05
4,C50G C58A G66A,0.000121 ± 4.3e-05
5,A12U A48U C58U,< 1e-05
6,A6U A14G U69G,0.000146 ± 3.5e-05
7,G35A A52U A53G C70U,< 1e-05
8,A48C A52G C58U,< 1e-05
9,G29U G32C A53G C70U,6e-05 ± 1.4e-05
10,G7A C8A U56G,< 1e-05
11,G35U U49C C50U C58G C61U,< 1e-05
12,A14C U31G A39G G66U,0.00126 ± 0.00036
13,C11G C50G C58A C61A,0.000322 ± 0.00011
14,U46G A48U C61A,< 1e-05
15,A14U G32U G44C G62U C71A,< 1e-05
16,A64C C67G C68A,6.52e-05 ± 1.8e-05
17,C16G G43U G62A,< 1e-05
18,U31G A39U A64C,6.17e-05 ± 2.3e-05
19,C11U A12C G32A G41A C68A,< 1e-05
20,A6U C67G C71A,< 1e-05
21,A14U A48C C70U,3.58e-05 ± 1.6e-05
22,A15C A36C G59A U65A,< 1e-05
23,C11G A52U C68U,< 1e-05
24,U30C U55A U69G,7.73e-05 ± 1.4e-05
25,G13C A15U G41U A42G G43C,< 1e-05
26,A12U G29U U30A U31A,0.000126 ± 4.8e-05
27,U47G A48U U65G,0.000213 ± 5.9e-05

row,Variant,self-cleavage kobs at 2500 uM GlcN6P [s⁻¹]
1,U30G G35A G43C,< 1e-05
2,A42U G43A G60U,< 1e-05
3,A15C G66U U69C,4.52e-05 ± 1.5e-05
4,A15G G32A G35U A52C,< 1e-05
5,A12C U45A C67G,0.000527 ± 0.00016
6,C10G C34A A52U,< 1e-05
7,A42C A48U G66C,< 1e-05
8,A6U G9A C61A,< 1e-05
9,C16U A36U G38C G60C,< 1e-05
10,C8G G9C G41A G60C C61A C68G,< 1e-05
11,G35C A39U G59A,< 1e-05
12,A53G C67G C68U,7.23e-05 ± 2.2e-05
13,A42U A48G C61A,< 1e-05
14,G9U A15C G32C,< 1e-05
15,A39U G51C C71G,< 1e-05
16,A39C U47C U55A,0.000971 ± 0.00023
17,U30G G32U G35A A53G,< 1e-05
18,A33C C68G C70U,< 1e-05
19,C8A A33C A42G U65G,< 1e-05
20,G29C C34A U47A U56C,< 1e-05
21,G7U G35U C50U,< 1e-05
22,U31G G44U G51C C58U G63U,< 1e-05
23,A6G A12U C67U,0.000919 ± 0.00023
24,G7U C11G G13A A14U G32U A33C G37A G40A U47C,< 1e-05
25,C34A G37A G43U,< 1e-05

# Variants of: B1
# Test: self-cleavage kobs at 10000 uM GlcN6P; higher = faster cleavage; RNA array
# Conditions: with glucosamine-6-phosphate
# In short: as §1
row,Variant,self-cleavage kobs at 10000 uM GlcN6P [s⁻¹]
1,G32U C50U,< 1e-05
2,U31G A39U A64C,4.91e-05 ± 1.3e-05
3,A15C A36C G59A U65A,< 1e-05
4,A12U G29U U30A U31A,0.000361 ± 0.00013
5,C10G C34A A52U,< 1e-05
6,A42C A48U G66C,< 1e-05
